From patent publication US20170210787A1 (Janssen / Centocor, published 2017)
Where two headings read alike, the source gives them in different places.

Columns and labels:
tau 299-369 [1] = biological target: tau 299-369 (human); assay: peptide ELISA, 1 ug/mL
tau 299-369 [2] = biological target: tau 299-369 (human); assay: peptide ELISA, 1 ug/mL; remark: listed apart in the source
tau 299-369 [3] = biological target: tau 299-369 (human); assay: ELISA on biotinylated peptide captured on streptavidin plate, IgG titrated [a]
tau 299-369 [4] = biological target: tau 299-369 (human); assay: as above; remark: listed apart in the source

B1: CBTAU-27.1 (antibody, V domains shown)
VH: QVQLVESGPEMRKPGESLKISCKTSGYIFSDYWTAWVRQLPGKGLQWMGIIYSGDSDTRYHPSVQGHVTMSTDSSLTTAYLQWSSLKASDTGIYYCARLDARVDAGWQLDSWGQGTLVTVSS
VL: DIQLTQSPDSLAVSLGERATINCKSSQSVFSRDNNKNYLAWYQHKSGQPPKLLFFWASSRESGVSDRFSGSGSGTDFTLTIDNLQAEDVALYYCQHYFNTPHNFGQGTKLEIK
Tau 299-369 [1]
  OD450: 1 to 1.5 od
Tau 299-369 [2]
  OD450: > 1.5 od
Tau 299-369 [3]
  EC50 (read off the curve): ~0.2 µg/mL
Tau 299-369 [4]
  EC50 (read off the curve): ~0.1 µg/mL
